Data reported in patent US20010052137A1, “Axin domain-like polypeptide inhibitors of glycogen synthase kinase 3 beta activity and activators of wnt signaling” (Trustees of the University of Pennsylvania, priority 2000, published 2001).

Key:
FL Xaxin = molecular target: T1, FL Xaxin (Xenopus laevis, UniProt Q9YGY0); test: Yeast two hybrid assay, interaction with FL Xaxin; format: binding; conditions: beta-galactosidase filter assay in S. cerevisiae
T1 construct: expressed in transfected cells; host or cells: Saccharomyces cerevisiae
Source text: FL Xaxin was cloned in frame with the GAL4 DNA binding domain (BD) in plasmid pAS2-1 (Clontech) to yield BD plasmid. Expression of BD plasmid yielded a Xaxin-GAL4 fusion protein. FL Xaxin, deltaDIX Xaxin, and a fragment (designated “AID”) encoding amino acid residues 489-777 of Xaxin were cloned in frame with the GAL4 transcriptional activation domain (AD) in the vector pACT2 to yield AD plasmids. Yeast were transformed with BD and AD plasmids using previously described protocols (Clontech, Palo Alto, Calif.). Transformed colonies were selected and assayed for beta-galactosidase activity in order to detect interacting proteins. In addition, three Xenopus axin partial length cDNAs (designated Y2H 2, Y2H 6, Y2H 7; all in plasmid pACT2) isolated from a previous yeast two hybrid screen (Hedgepeth et al., 1999, Mech. Develop. 80:147-151) were analyzed. Purification of GID
Using the yeast two hybrid assay, the ability of axin to bind with itself, with other members of the wnt pathway, or with the G(alpha)q subunit of heterotrimeric G-proteins, was investigated. […]
Saccharomyces cerevisiae cells were transformed with the bait vector and with one of the target vectors. Interaction was assessed using a filter assay to detect beta-galactosidase activity, as described (Fields et al., 1989, Nature 340:245-247; Harper et al., 1993, Cell 75:805-816). […]

GSK-3 beta [1] = test: In vitro GSK-3 beta activity assay with purified GID-2/his; format: biochemical
Protocol: In ovo phosphorylation of tau by GSK-3 beta was performed by microinjection of tau protein into oocytes expressing GSK-3 beta and Xaxin constructs. After 90 minutes, oocytes were homogenized and tau phosphorylation was analyzed in western blots using phospho-specific antibodies as described (Hedgepeth et al., 1997, Develop. Biol. 185:82-91). In vitro assays for GSK-3 beta activity were performed as described (Klein et al., 1996, Proc. Natl. Acad. Sci. USA 93:8455-8459). Recombinant GID-2/his protein (described below) was purified by affinity chromatography and added to in vitro assays at selected concentrations.
A cDNA (GID-2) encoding amino acid residues 320-429 of Xaxin was cloned into pET29b (Novagen, Madison, Wis.) in frame with the His-epitope tag. The resulting encoded GID-2/his fusion protein was expressed in BL2I/DE3 cells and purified on nickel agarose according to standard procedures. […]
(§1) GSK-3 beta (25 nanomolar) was incubated with GID-2/his (up to 200-fold molar excess), and each mixture was assayed to detect either protein kinase activity or, in parallel, protein-protein interaction. Interaction between GSK-3 beta and GID-2/his was detected by purification on nickel agarose followed by immunoblotting with GSK-3 beta-specific antibodies. […]

GSK-3 beta [2] = test: In vitro binding of GSK-3 beta to GID-2/his on nickel agarose; conditions: 25 nanomolar GSK-3 beta
Protocol: A cDNA (GID-2) encoding amino acid residues 320-429 of Xaxin was cloned into pET29b (Novagen, Madison, Wis.) in frame with the His-epitope tag. The resulting encoded GID-2/his fusion protein was expressed in BL2I/DE3 cells and purified on nickel agarose according to standard procedures. Purified GID-2/his was added to a reaction cocktail having a final volume of 20 microliters and containing 25 nanomolar recombinantly-generated GSK-3 beta in GSK-3 assay buffer, as described (Klein et al., 1996, Proc. Natl. Acad. Sci. USA 93:8455-8459). This reaction mixture was incubated at 0° C. for one hour. After this incubation period, half of the mixture was assayed for GSK-3 beta activity, and the other half was incubated with nickel-agarose at 4° C. for one hour with rotation. The agarose was washed three times using PBS, and then Laemmli sample buffer was added. The samples were boiled for five minutes and then subjected to immunoblotting using anti-GSK-3 beta antibody.
as §1

T1 sequence (Q9YGY0 whole entry): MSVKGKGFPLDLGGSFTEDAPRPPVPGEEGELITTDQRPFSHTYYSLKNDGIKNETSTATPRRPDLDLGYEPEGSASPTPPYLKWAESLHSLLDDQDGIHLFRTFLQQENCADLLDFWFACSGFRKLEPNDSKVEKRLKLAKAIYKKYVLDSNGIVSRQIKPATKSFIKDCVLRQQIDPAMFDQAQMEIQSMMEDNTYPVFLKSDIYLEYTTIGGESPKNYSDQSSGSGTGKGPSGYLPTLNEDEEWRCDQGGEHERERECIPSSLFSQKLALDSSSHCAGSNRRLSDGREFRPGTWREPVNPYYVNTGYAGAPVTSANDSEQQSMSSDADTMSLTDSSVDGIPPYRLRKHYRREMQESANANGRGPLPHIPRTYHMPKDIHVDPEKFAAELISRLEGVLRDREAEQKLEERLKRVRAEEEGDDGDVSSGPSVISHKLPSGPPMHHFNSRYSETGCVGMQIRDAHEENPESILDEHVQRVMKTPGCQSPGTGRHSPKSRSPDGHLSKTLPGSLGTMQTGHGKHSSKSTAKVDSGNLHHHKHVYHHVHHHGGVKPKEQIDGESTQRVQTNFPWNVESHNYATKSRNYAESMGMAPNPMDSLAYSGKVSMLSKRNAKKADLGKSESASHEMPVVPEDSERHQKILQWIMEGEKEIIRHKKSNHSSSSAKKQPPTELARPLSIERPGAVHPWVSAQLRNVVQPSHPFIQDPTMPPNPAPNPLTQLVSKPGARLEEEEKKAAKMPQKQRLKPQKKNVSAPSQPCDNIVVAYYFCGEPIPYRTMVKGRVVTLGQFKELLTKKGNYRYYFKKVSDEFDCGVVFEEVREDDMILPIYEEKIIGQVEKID

Molecule | interaction with FL Xaxin (self-interaction) (FL Xaxin) | GSK-3 beta mediated phosphorylation of the GS-2 peptide (GSK-3 beta [1]; 25 nanomolar GSK-3 beta, GID-2/his up to 200-fold molar excess) | phosphorylation of tau by GSK-3 beta in vitro (GSK-3 beta [1]; GID-2/his at a 200-fold molar excess) | binding of GSK-3 beta (nickel agarose, immunoblot) (GSK-3 beta [2])
AID: fragment of amino acid residues 489-777 of Xaxin, axin self-interaction domain (protein, left off: large carriers) PGTGRHSPKSRSPDGHLSKTLPGSLGTMQTGHGKHSSKSTAKVDSGNLHHHKHVYHHVHHHGGVKPKEQIDGESTQRVQTNFPWNVESHNYATKSRNYAESMGMAPNPMDSLAYSGKVSMLSKRNAKKADLGKSESASHEMPVVPEDSERHQKILQWIMEGEKEIIRHKKSNHSSSSAKKQPPTELARPLSIERPGAVHPWVSAQLRNVVQPSHPFIQDPTMPPNPAPNPLTQLVSKPGARLEEEEKKAAKMPQKQRLKPQKKNVSAPSQPCDNIVVAYYFCGEPIPYR | sufficient to mediate axin self-interaction |  |  | 
GID-2/his: His-tagged fusion protein of Xaxin residues 320-429, expressed in E. coli and purified on nickel agarose (protein, left off: small tags and cut ends, His-tagged fusion protein of Xaxin residues 320-429, expressed in E. coli and purified on nickel agarose) DSEQQSMSSDADTMSLTDSSVDGIPPYRLRKHYRREMQESANANGRGPLPHIPRTYHMPKDIHVDPEKFAAELISRLEGVLRDREAEQKLEERLKRVRAEEEGDDGDVSS |  | no significant effect | did not inhibit | bound specifically
